Target: T1, A155
T1 construct: also called antibody-based multispecific antagonist A155
Test: BLI (Octet RED96), antagonist captured on biosensor, ligand in solution
Excerpt: The binding sensorgrams were collected using the 8-channel detection mode on the biosensor.

B1: TGF-β3 (ligand)
chain: ALDTNYCFRNLEENCCVRPLYIDFRQDLGWKWVHEPKGYYANFCSGPCPYLRSADTTHSTVLGLYNTLNPEASASPCCVPQDLEPLTILYYVGRTPKVEQLSNMVVKSCKCS
notes: also called TGF-33 (misprint in the text)
B1 gave a Kd of ~20 nM.
